Reference: patent publication US11725220B1, “Production of fusel lactates via biocatalysis” (National Technology & Engineering Solutions of Sandia, LLC, priority 2020, dated 2023)

B1: EstA: esterase from Pseudomonas aeruginosa, expressed in BL21 E. coli (protein, UniProt O33407 25-646, looked up)
Esterase EstA: APSPYSTLVVFGDSLSDAGQFPDPAGPAGSTSRFTNRVGPTYQNGSGEIFGPTAPMLLGNQLGIAPGDLAASTSPVNAQQGIADGNNWAVGGYRTDQIYDSITAANGSLIERDNTLLRSRDGYLVDRARQGLGADPNALYYITGGGNDFLQGRILNDVQAQQAAGRLVDSVQALQQAGARYIVVWLLPDLGLTPATFGGPLQPFASQLSGTFNAELTAQLSQAGANVIPLNIPLLLKEGMANPASFGLAADQNLIGTCFSGNGCTMNPTYGINGSTPDPSKLLFNDSVHPTITGQRLIADYTYSLLSAPWELTLLPEMAHGTLRAYQDELRSQWQADWENWQNVGQWRGFVGGGGQRLDFDSQDSAASGDGNGYNLTLGGSYRIDEAWRAGVAAGFYRQKLEAGAKDSDYRMNSYMASAFVQYQENRWWADAALTGGYLDYDDLKRKFALGGGERSEKGDTNGHLWAFSARLGYDIAQQADSPWHLSPFVSADYARVEVDGYSEKGASATALDYDDQKRSSKRLGAGLQGKYAFGSDTQLFAEYAHEREYEDDTQDLTMSLNSLPGNRFTLEGYTPQDHLNRVSLGFSQKLAPELSLRGGYNWRKGEDDTQQSVSLALSLDF
B2: EEB1: esterase from Saccharomyces cerevisiae, expressed in BL21 E. coli, used as cell lysate (protein, UniProt Q02891 1-456, looked up)
Medium-chain fatty acid ethyl …: MFRSGYYPTVTPSHWGYNGTVKHVLGEKGTKSLAFRDSKRQIPLHEFVTKHVPTLKDGANFRLNSLLFTGYLQTLYLSAGDFSKKFQVFYGREIIKFSDGGVCTADWVMPEWEQTYSLNAEKASFNEKQFSNDEKATHPKGWPRLHPRTRYLSSEELEKCHSKGYSYPLVVVLHGLAGGSHEPLIRALSEDLSKVGDGKFQVVVLNARGCSRSKVTTRRIFTALHTGDVREFLNHQKALFPQRKIYAVGTSFGAAMLTNYLGEEGDNCPLNAAVALSNPWDFVHTWDKLAHDWWSNHIFSRTLTQFLTRTVKVNMNELQVPENFEVSHKPTVEKPVFYTYTRENLEKAEKFTDILEFDNLFTAPSMGLPDGLTYYRKASSINRLPNIKIPTLIINATDDPVTGENVIPYKQARENPCVLLCETDLGGHLAYLDNESNSWLTKQAAEFLGSFDELVL
modifications: cell lysate

Tests used:
[1] = 25° C.; cited from earlier work
[2] = Temperature and pH optimisation, pNPA reaction assay (Example Set 1); format: biochemical; settings: tested 22, 30, 37 °C; pH 6, 7, 8; 100 μM pNPA
Source text: (§1) Esterase activity is used to indirectly measure the esterification activity required for enzymes to produce ethyl lactate. Cleavage of the ester bond in 4-nitrophenyl acetate (pNPA) to form 4-nitrophenol (pNP) and acetic acid is used to determine the esterase activity of the enzymes. The Km and Vmax values, found by applying the Michaelis-Menten kinetics model to experimental data found at optimal pH and temperature conditions, are used to evaluate enzymatic activity. As disclosed herein, hydrolysis of the ester bond in pNPA was used to estimate the esterification activity of the enzymes.
(§2) This work involved two separate sets of examples (Generally, Example Set 1 and Example Set 2). Example Set 1 set was performed to determine the optimum temperature and pH conditions for each enzyme to catalyze the pNPA reaction. Three temperatures (22, 30, 37° C.) and three pH conditions (pH of 6, 7, 8) were tested. The temperature and pH condition which led to the highest product concentration were selected as the conditions to be used for each enzyme in Example set 2. The second set of examples was a kinetics reaction assay where reaction progress was measured at five time points (0, 15, 30, 60, 120) for six different initial pNPA concentrations (0, 25, 50, 100, 150, 200 μM).
Example Set 1 had the objective of determining the optimum temperature and pH conditions at which to run experiments for enzymatic activity characterization. As such, temperature and pH were the only conditions that varied in this experiment. Both were tested at three different levels which were similar to normal cell conditions: 22, 30 and 37° C. for temperature and 6, 7, and 8 for pH.
These were tested for all 8 enzymes from Table 1, as well as the wild type control, and a blank containing no enzyme.
The phosphate buffer was of 6, 7, or 8 pH, respectively. Lysate for each enzyme was diluted down to 250 μg/ml to facilitate ease of addition—each blank received an extra 100 μl of phosphate buffer instead of diluted cell lysate. The enzymatic component was added last and was the catalyst to initialize the reaction. The reactions were performed in three deep 96-well plates each of which was incubated at one of the temperature conditions. Agitation was provided by incubators shaking at 230 RPM.
Readings were made at 30 and 60 minutes following the initialization of the reaction. To make a reading, 200 μl of the reaction volume were transferred from the deep well plates to standard 96-well plates. The pNP product of the pNPA reaction assays is detected through Absorbance at a wavelength of 410 nm.
A curve was generated to convert from absorbances to pNP concentration. The relationship between a colored chemical and its absorbance is usually linear and can be used to convert absorbance values into chemical concentrations. To know how much pNP was being detected through absorbance, it was necessary to create a standard curve to obtain values for the relationship between the concentration of pNP and the absorbance of pNP. Creating a standard curve involved creating samples of different pNP concentrations. For the pNP to give color, it needed to be ionized. Accordingly, pNP was ionized in the presence of NaOH at a concentration of 0.4 g/ml. A standard curve was created by taking the absorbance of pNP at various known concentrations. […] As also seen in FIG. 5, the data (solid line) closely follows a linear pattern over the concentration range being tested for pNP. The R2 value for the linear regression is 0.9939. The formula for converting from absorbance to pNP, derived from that linear regression, is seen in Equation A1: [pNP]=(Abs+0.0244)/25.929 [A1]

[3] = Kinetics reaction assay, pNPA to pNP, Michaelis-Menten model (Example Set 2); format: biochemical; settings: for specificity constant, comparison in words: FIG. 15; for vmax × 10^−6 / Km: pNPA to pNP, cell lysate 50 μg/ml protein, optimal temperature and pH of each enzyme; for Km: read-out: km × 10^−6; for kcat: turnover number, all protein detected by Bradford's reagent assumed to be the enzyme
Source text: as §1
Enzymatic activity can be characterized by calculating kinetic parameters for the enzymes considered. To calculate kinetic parameters for an enzyme, a kinetic model must be applied to the data.
In this form, only the initial reaction rate and substrate concentrations are considered—with the initial reaction rate being the average change in product concentration between the reaction initiation and the first subsequent reading. Plotting the inverse of v0 against the inverse of [S0] results in what is known as a Lineweaver-Burk plot. An example of a Lineweaver-Burk plot is seen in FIG. 2.
A linear regression of the data in such plots follows the linearized Michaelis-Menten equations. The y-intercept of the Lineweaver-Burk plot is the inverse of vmax; the slope multiplied by vmax gives the value of the km parameter. This is summarized in Equation 4: […]
Therefore, the kinetic parameters of an enzyme can be determined through the parameters obtained through a linear regression applied to linearized kinetics data. Once vmax and km are determined, they can be used to calculate the turnover number and the specificity constant. This approach utilizes experiments being performed with varying initial substrate concentrations while holding all other parameters constant.
as §2
In Example Set 2, a kinetics reaction assay was performed on the enzymes from Table 1. […] That enzymatic activity was tested for at the ideal temperature and pH conditions determined in the optimization experiment.
One deviation from the common protocols for Example Set 2 was that cell pellets had been stored in −80° C. for seven days instead of the usual 24 hours. In addition, the lysing process included more vigorous agitation.
To determine the kinetic activity for each enzyme, substrate concentration was varied and measured at different time points. In addition to testing each enzyme, a wild type E. coli PET control (see Table 1) was run at its optimal conditions. A blank containing pNPA but no enzyme was also included for each of the temperature pH combinations to be tested.
Initial pNPA concentrations were tested at 0, 25, 50, 100, 150, 200 μM. Measurements were made at 0, 15, 30, 60, and 120 minutes.
The phosphate buffer was of pH 6, 7, or 8 as determined to be best from Example Set 1. Stock solutions of pNPA were made in different concentrations such that adding 20 μl to the reaction would result in the corresponding final pNPA concentration (either 25, 50, 100, 150, or 200 μM). Cell lysate was diluted to concentrations of 250 μg/m to allow for uniformity in the volume of lysate added to each reaction. Instead of diluted lysate, each blank received an extra 200 μl of phosphate buffer. […]

E. coli BL21-DE3 = experiment: In vivo production of esters by engineered E. coli, culture supernatants by GC-MS (Example Set 3); format: cell-based; settings: culture supernatant, M9 medium, 1 mM IPTG
Source text: E. coli cells were engineered through two step cloning. First, the cells (E. coli BL21-DE3, a commercially available genetic transformation-ready strain) were cloned with esterase or transferase enzymes using pET15b plasmid at NdeI/BamHI locus in the vector.
Specifically, plasmids were constructed (PT7::RBS:Gene*::PT7::RBS:pct::RBS:ldh in pET15b) and cloned in E. coli BL21-DE3 with ethanol producing plasmid (pACYDuet-Zm-pdc-Zm-adh). Cells were cultivated with high-cell density in M9 medium and induced with 1 mM IPTG.
Culture supernatants were analyzed through HPLC (for ethanol and lactate) and GC-MS (for esters). Esterase-A yielded highest ethyl lactate (3.5±1.5 mg/L) and ethyl acetate (16±8 mg/L).
FIGS. 18 and 19 show a GC-MS analysis of culture supernatants (collected after 22 h and 46 h of incubation) of mutants extracted with chloroform.

Molecule	vapor pressure [1] [mm Hg]	Temperature giving 2nd highest conversion of pNPA to pNP [2] [°C]	Temperature giving highest conversion of pNPA to pNP [2] [°C]	pH giving 2nd highest conversion of pNPA to pNP [2]	pH giving highest conversion of pNPA to pNP [2]	specificity constant, comparison in words [3]	vmax × 10^−6 [3]	Km [3] [µM]	kcat [3] [s⁻¹]	ethyl acetate yielded (E. coli BL21-DE3) [mg/L]	ethyl lactate yielded (E. coli BL21-DE3) [mg/L]
xylene	8.84	–	–	–	–	–	–	–	–	–	–
Cc1ccccc1 [toluene]	28.4	–	–	–	–	–	–	–	–	–	–
CCOC(=O)C(C)O (stereo not drawn) [ethyl lactate]	3.75	–	–	–	–	–	–	–	–	–	–
B1	–	37	22	8	7	top performing enzymes	1.09 ± 0.05 × 10^−6 molL^−1s^−1	4.89 ± 1.16	1.52 ± 0.36	16 ± 8	3.5 ± 1.5
B2	–	30	22	8	7	top performing enzymes	1.34 ± 0.26 × 10^−6 molL^−1s^−1	3.9 ± 0.74	1.39 ± 0.26	–	–
